For two substances, Kd, IC50 and reduction in gp120 binding to Jurkat cells results are on record in PMC13137973.

Broadly, the Kd is the constant that tells how readily two partners part at equilibrium. Lower therefore signals tighter binding. As a reminder, the IC50 is the point on the concentration scale where inhibition reaches its midpoint. A lower IC50 goes with greater potency in that assay.

For assay [1], the target named is Biotinylated human TNFR2 protein (human) (UniProt P20333). Kind of assay: BLI. (In general: In BLI a coated tip is dipped into the sample, and binding shifts an interference pattern.)
The target in assay [2] is human immunodeficiency virus 1 (HIV-1) (group M, subtype B, Isolate MN) gp120 Protein (HIV-1 (group M, subtype B, isolate MN)) (UniProt P05877). Kind of assay: flow cytometry on cells. (In general: A flow cytometer gives signals particle by particle.)

Sequence of recombinant TNFR2 protein (soluble, exogenous) (P20333 23-257): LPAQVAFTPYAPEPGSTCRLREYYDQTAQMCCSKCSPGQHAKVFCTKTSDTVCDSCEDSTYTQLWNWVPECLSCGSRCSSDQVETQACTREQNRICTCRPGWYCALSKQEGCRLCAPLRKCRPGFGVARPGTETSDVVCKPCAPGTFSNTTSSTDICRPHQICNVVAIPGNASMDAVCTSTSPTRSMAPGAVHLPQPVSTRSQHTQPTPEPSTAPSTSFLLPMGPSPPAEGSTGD
Sequence of Biotinylated human TNFR2 protein (human) (P20333 23-257): as above

In turn, “human immunodeficiency virus 1 (HIV-1) (group M, subtype B, Isolate MN) gp120 Protein (from UniProt P05877 30-513) (natural protein)” registered a Kd in assay [1] of 86.5 nM.

With “recombinant TNFR2 protein (soluble, exogenous) (from UniProt P20333-1 23-257) (domain or fragment)”, in assay [2], the IC50 was found to be 107 nM and the reduction in gp120 binding to Jurkat cells came out at 65%.
